This note sets out measurements from publication PMC9427789 (2022).

Sequences and labels used below:
B1: Burosumab (wild type) (antibody, V domains shown)
VH: QVQLVQSGAEVKKPGASVKVSCKASGYTFTNHYMHWVRQAPGQGLEWMGIINPISGSTSNAQKFQGRVTMTRDTSTSTVYMELSSLRSEDTAVYYCARDIVDAFDFWGQGTMVTVSS
VL: AIQLTQSPSSLSASVGDRVTITCRASQGISSALVWYQQKPGKAPKLLIYDASSLESGVPSRFSGSGSGTDFTLTISSLQPEDFATYYCQQFNDYFTFGPGTKVDIK
B2: Burosumab VL:A32S (antibody, V domains shown)
VH: QVQLVQSGAEVKKPGASVKVSCKASGYTFTNHYMHWVRQAPGQGLEWMGIINPISGSTSNAQKFQGRVTMTRDTSTSTVYMELSSLRSEDTAVYYCARDIVDAFDFWGQGTMVTVSS
VL: AIQLTQSPSSLSASVGDRVTITCRASQGISSSLVWYQQKPGKAPKLLIYDASSLESGVPSRFSGSGSGTDFTLTISSLQPEDFATYYCQQFNDYFTFGPGTKVDIK
B3: Burosumab VH:V97A (antibody, V domains shown)
VH: QVQLVQSGAEVKKPGASVKVSCKASGYTFTNHYMHWVRQAPGQGLEWMGIINPISGSTSNAQKFQGRVTMTRDTSTSTVYMELSSLRSEDTAVYYCARDIADAFDFWGQGTMVTVSS
VL: AIQLTQSPSSLSASVGDRVTITCRASQGISSALVWYQQKPGKAPKLLIYDASSLESGVPSRFSGSGSGTDFTLTISSLQPEDFATYYCQQFNDYFTFGPGTKVDIK
B4: Burosumab variant with combined VH:V97A and VL:A32S mutations (antibody, V domains shown)
VH: QVQLVQSGAEVKKPGASVKVSCKASGYTFTNHYMHWVRQAPGQGLEWMGIINPISGSTSNAQKFQGRVTMTRDTSTSTVYMELSSLRSEDTAVYYCARDIADAFDFWGQGTMVTVSS
VL: AIQLTQSPSSLSASVGDRVTITCRASQGISSSLVWYQQKPGKAPKLLIYDASSLESGVPSRFSGSGSGTDFTLTISSLQPEDFATYYCQQFNDYFTFGPGTKVDIK

The target of this assay is T1, His-SUMO-FGF23 (N-terminal domain of human FGF23, wild type) (human, UniProt Q9GZV9 25-204).
T1 chain: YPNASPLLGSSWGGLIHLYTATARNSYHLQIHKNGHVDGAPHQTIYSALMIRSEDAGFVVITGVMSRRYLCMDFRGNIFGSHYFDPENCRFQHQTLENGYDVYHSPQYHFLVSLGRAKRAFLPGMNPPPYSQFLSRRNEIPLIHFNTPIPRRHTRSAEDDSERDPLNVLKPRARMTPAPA
Description: ELISA. On the technique in general: ELISA stands for enzyme-linked immunosorbent assay.
In the case of B1, the Kd (usually the constant that tells how readily two partners part at equilibrium) turned out to be 770 pM. B2 showed a Kd of 480 pM.

B3: the Kd stood at 650 pM.

In the case of B4, the affinity, expressed as Kd, was 210 pM.
